Source: PMC12169211

Biological target: thrombin (biotinylated, immobilized on streptavidin microparticles) (UniProt P00734;P00734 328-363;364-622)
Assay: microparticle flow cytometry; Thrombin-microparticles incubated with 0.5-200 nM FAM-aptamer, washed with DPBS, flow cytometry; binding buffer, pH and temperature not stated

Row | Binder | Kd [nM]
1 | hybrid bispecific aptamer without toehold (HBA; 15-mer-Sticky + 29-mer-Sticky) (structured_DNA) DNA 1: GGTTGGTGTGGTTGGTTTTTGACCCTGCGTACC DNA 2: AGTCCGTGGTAGGGCAGGTTGGGGTGACTTTTTTGGTACGCAGGTC | 4.8
2 | toehold hybrid bispecific aptamer (THBA; 15-mer-Sticky + 29-mer-Sticky-TH) (structured_DNA) DNA 1: GGTTGGTGTGGTTGGTTTTTGACCCTGCGTACC DNA 2: AGTCCGTGGTAGGGCAGGTTGGGGTGACTTTTTTGGTACGCAGGTCCGTTA | ~5.7
